From US8722052B2, “Vaccinia virus protein A46 peptide and use thereof” (priority 2008, dated 2014)

How the values were obtained:
TLR9 [1] = target: T1, TLR9 (Mus musculus, UniProt Q9EQU3); assay: CpG-induced TNFα in RAW264.7 cells, ELISA; format: cell-based, murine; details: peptide 5 or 20 μM 1 h before CpG, supernatant 24 h
T1 construct: using the murine macrophage cell line RAW264.7; endogenous in cells; host or cells: RAW264.7
T1 sequence (Q9EQU3 26-1032): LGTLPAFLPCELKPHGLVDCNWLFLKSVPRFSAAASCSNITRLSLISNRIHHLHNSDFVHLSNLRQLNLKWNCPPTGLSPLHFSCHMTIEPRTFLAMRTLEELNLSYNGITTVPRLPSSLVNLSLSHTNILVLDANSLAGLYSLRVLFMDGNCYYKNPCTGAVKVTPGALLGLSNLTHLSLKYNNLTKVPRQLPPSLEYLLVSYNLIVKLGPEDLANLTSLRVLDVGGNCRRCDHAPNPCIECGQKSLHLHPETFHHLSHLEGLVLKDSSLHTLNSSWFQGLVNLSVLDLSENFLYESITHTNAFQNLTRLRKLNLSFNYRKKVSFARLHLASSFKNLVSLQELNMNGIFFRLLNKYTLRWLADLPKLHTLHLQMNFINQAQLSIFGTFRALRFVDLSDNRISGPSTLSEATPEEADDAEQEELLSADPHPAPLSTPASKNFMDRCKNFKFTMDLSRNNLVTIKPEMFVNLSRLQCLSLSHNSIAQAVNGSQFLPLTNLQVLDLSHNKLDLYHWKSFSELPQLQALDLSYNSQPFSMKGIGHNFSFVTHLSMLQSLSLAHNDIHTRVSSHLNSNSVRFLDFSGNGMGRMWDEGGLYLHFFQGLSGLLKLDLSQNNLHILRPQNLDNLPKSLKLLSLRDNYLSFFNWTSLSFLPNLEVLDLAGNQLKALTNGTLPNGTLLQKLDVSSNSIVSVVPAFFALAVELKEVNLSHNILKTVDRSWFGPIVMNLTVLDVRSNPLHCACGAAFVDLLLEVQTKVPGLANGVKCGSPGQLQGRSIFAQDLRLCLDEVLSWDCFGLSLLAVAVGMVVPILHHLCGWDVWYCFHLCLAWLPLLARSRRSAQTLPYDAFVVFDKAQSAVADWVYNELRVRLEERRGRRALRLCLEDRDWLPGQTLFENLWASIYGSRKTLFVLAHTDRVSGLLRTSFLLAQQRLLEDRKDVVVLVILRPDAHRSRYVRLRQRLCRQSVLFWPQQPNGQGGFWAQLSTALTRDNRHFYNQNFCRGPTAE
Procedure: (§1) FIGS. 2A and B are bar charts showing the effect of peptides derived from A46 on CpG-induced TNFα in murine RAW264.7 cells. A46 peptides were added to the cells at a concentration of 5 or 20 μM 1 hour before stimulating with 1 pg/ml CpG. Supernatants were collected 24 hours after stimulation and assayed for TNFα by ELISA. No peptides were added into the control wells (black bars). (A) peptides A461-A467 (SEQ ID NO. 17 to 23). (B) peptides A468-A4614 (SEQ ID NO. 24 to 30) (excluding A4612 SEQ ID NO. 28). Data is representative of at least two experiments each performed in triplicate and is expressed as mean±s.d;
(§2) Cytokine and chemokine production from cells or mouse serum was measured by ELISA using Duoset kits from R&D systems, according to the manufacturer's instructions.
(§3) These peptides were initially screened for effects on TLR-induced gene induction in vitro using the murine macrophage cell line RAW264.7. Unmethylated CpG dinucleotides of bacterial DNA sequences are detected by TLR9, which leads to production of pro-inflammatory cytokines and chemokines, including TNFα via a MyD88-dependent pathway (Latz et al, 2004). […] The effect of the peptides on two TLR9-induced cytokines, namely TNFα and MIP-2, was measured by ELISA. TNFα is NFκB-dependent, and MIP-2 as well as NFκB also requires IRFs for transcriptional activation (De Filippo et al, 2008). […]

TLR9 [2] = target: T1, TLR9; assay: CpG-induced MIP-2 production in RAW264.7 cells, ELISA; format: cell-based, murine; details: peptide 5 or 20 μM 1 h before 1 μg/ml CpG, supernatant 24 h
Procedure: as §1, with “1A” for “2A”, “MIP-2 production” for “TNFα in”, “cells. Cells were seeded in 96 well plates (1.5×10^5 cells/nil) at least 24 hours before treatment.” for “cells.”, “μg/ml” for “pg/ml”, “MIP2” for “TNFα”
as §2
as §3, with “ELISA.” for “ELISA. TNFα is NFκB-dependent, and MIP-2 as well as NFκB also requires IRFs for transcriptional activation (De Filippo et al, 2008).”

## KYSFKLILAEYRRRRRRRRR [Peptide A464]
TLR9 [1]
  inhibition of CpG-induced TNFα production: little or no effect
TLR9 [2]
  inhibition of CpG-induced MIP-2 secretion: little or no effect
